According to the supplement of paper PMC9170038:

Assays:
[1] = system: MS2 coat protein; experiment: apparent KD of MS2 coat protein, switch ON state; designed switch direction (-1 OFF switch, 1 ON switch): 1; higher = weaker reporter binding; settings: FMN input: 0 or 200 uM; Eterna round: R93 (includes R88 designs)
In short: (§1)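 Illumina sequencing clusters were used for on-chip transcription of designed RNA switches. Titration with SNAP-549-labelled MS2 coat protein followed, in twofold steps from 0.7 or 1.5 nM to 3 µM in 100 mM Tris-HCl pH 7.5, 80 mM KCl, 4 mM MgCl2, without or with constant ligand. Apparent KD is each design's median of fits to normalised cluster binding curves.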

[2] = system: MS2 coat protein; experiment: apparent KD of MS2 coat protein, switch OFF state (with FMN for OFF switches, without FMN for ON switches); designed switch direction (-1 OFF switch, 1 ON switch): 1; higher = weaker reporter binding; settings: FMN input: 0 or 200 uM; Eterna round: R93 (includes R88 designs)
In short: as §1

Sequence	apparent KD of MS2 coat protein [1]	apparent KD of MS2 coat protein [2]
AAGAAACAUGAGGAUCACCCAUGUGUAAAUAUGGGAGGAUAUACAAGGACGUAAGUCAAGGUAGAAGGCCUAAGAA [Mat - Same State 1 - Meechl mod - D137]	29.4 nM	319 nM
AAGAAAGAAACGCAGGAUAUGCAAAACAAAACAUGAGGAUCACCCAUGUCAAACAAACAAACAAAGCAGAAGGGCGAAAGAAAGAA [Same State 2 AA]	18.1 nM	21.3 nM
AAGAAAGUUUACGAGGAUAUGUUCCGCAGAACAUGAGGAUCACCCAUGUGAACACGAAGUGCGACGCAGAAGGCGUGAGCAAUGA [Isenmaqu]	34.5 nM	130 nM
AAGAUACAUGAGGAUCACCCAUGUUAAGAGAGAUGAGGAUAUCCGAAUUAAUUAAAUUAAGGAGAAGGCAUGAAAA [LROPPY Same State 1 - v02_deltaG=2.1]	18.2 nM	26.9 nM
AAGCAACAUGAGGAUCACCCAUGUAGCAGGGUCAGAGGAUAUUUGAGCUUGGUAAGGGUUAAAGAAGGUUGAUAAA [Alabeti]	138 nM	55.5 nM
AAUAAACAUGAGGAUCACCCAUGUCGGUAAAGUCAAGGAUAUGGGACUGGGAUUAAAGUGCCAGAAGGUGAAAAUA [Raxela]	122 nM	351 nM
AAUAAGACUAGCAAGGAUAUCGAAAACGAGACAUGAGGAUCACCCAUGUAACAAGUAUAAGUAUACGAGAAGGUGCAGGGUGUAA [JR_SS002_Sub302]	174 nM	36.9 nM
AAUAAGACUAGCAAGGAUAUCGAAAACGAGACAUGAGGAUCACCCAUGUAACGAGUAUAAGUAUACGAGAAGGUGCAGGGUGAAA [JR_SS002_Sub303]	75 nM	86.7 nM
AAUACACAUGGUCAGGAUAUCGCAGCUAGGACAUGAGGAUCACCCAUGUAGCAUGUAACUGAAACCGAGAAGGGACAGGGUGAUC [JR_SS002_Sub412]	61.4 nM	85.1 nM
AAUACACAUGGUCAGGAUAUCGCAGCUAGGACAUGAGGAUCACCCAUGUCGUACGUAAAAGUAAAUGAGAAGGGACAGGGUGACC [JR_SS002_Sub407]	37.8 nM	30 nM
AAUAUACAUGAGGAUCACCCAUGUGAAAAUAUGGAAGGAUAUCGUAAAAAAAAAAAAAAACGAGAAGGUCCAAAAA [SS! 1 MT 14]	18.7 nM	30.2 nM
AAUAUAUUAAGUGAGGAUAUCAAGAAAAAAACAUGAGGAUCACCCAUGUGGGAAACACGGUAGGGUGAGAAGGUACUUAAUAUAU [Samwise Clockwise 20 - Jieux - Same State 2]	504 nM	27.6 nM
AAUAUAUUAAGUGAGGAUAUCGAGGAAAAAACAUGAGGAUCACCCAUGUGGGAAACCUGGUCGGGUGAGAAGGCACUUAAUAUAU [Samwise Clockwise 26 - Jieux - Same State 2]	19.8 nM	76.7 nM
ACAAAACAUGAGGAUCACCCAUGUGAGAACAUGAAAGGAUAUACUAGGACGAGAGUCAAUGUAGAAGGUUCUAGAA [SS - 1]	34.6 nM	39 nM
ACAAGGCUACACUAGGAUAUGGGUGUCUAAACAUGAGGAUCACCCAUGUGAUGGCAAAACAAAGCUCAGAAGGAGUCGUAGCCCA [Anvemais]	14.7 nM	27.4 nM
ACCAGGAAGAGAGAGGAUAUCCAAAGGAAAACAUGAGGAUCACCCAUGUAAAAGGUAGGAAAUUGGGAGAAGGCUCAAGAGAGAG [salish99-ss2-101]	26.7 nM	30.1 nM
ACGGCACAUGAGGAUCACCCAUGUGCCGAGAGGCGAGGAUAUCGAAAAAAAAAAAAAAAACGAGAAGGCGCGAGAA [SameState1NO]	12.6 nM	11.1 nM
ACUACACAUGAGGAUCACCCAUGUCAGGUGGGACUAGGAUAUUAUAAACCAGAGUAAAAAUAAGAAGGAGUAGAAA [JR_SS001_Sub308]	51.8 nM	46.6 nM
ACUUCACAUGAGGAUCACCCAUGUCAGGCCGGACUAGGAUAUUAUAAACCAGAGUAAAAAUAAGAAGGAGUAGGAA [JR_SS001_Sub311]	67.9 nM	75.2 nM
AGAAAACAUGAGGAUCACCCAUGUCAAAUAAGUCAAGGAUAUGGGACUCCGCGAGAGUCGCCAGAAGGUGAGAAAA [Aatrara]	17.5 nM	49.5 nM
AGAAAACAUGAGGAUCACCCAUGUGAUAAUAUGGGAGGAUAUACGAAGACGAAAGUCGACGUAGAAGGCCUAAAGA [Garnet 48]	35.3 nM	70.8 nM
AGAAAGAAUAGAGAGGAUAUCUAUAAGAAAACAUGAGGAUCACCCAUGUAAAAGAAAAGAAAAUGGGAGAAGGCUCAUAAGAAAG [JL Skelter Mod 6 In the Red]	186 nM	71.6 nM

Sequence	apparent KD of MS2 coat protein [1]	apparent KD of MS2 coat protein [2]
AGAAAUAAAAGACAGGAUAUCCAAAAGAAAACAUGAGGAUCACCCAUGUAAAAGAAAAUAAAAUGGGAGAAGGGUCAAAAUAAAG [Topaz 2]	11 nM	36.6 nM
AGAAAUAAAAGAGAGGAUAUCCAAAACAAAACAUGAGGAUCACCCAUGUGAAAGAAAAUAAAAUGGGAGAAGGCUCAAAAUAAAG [Topaz 8]	8.35 nM	70.4 nM
AGAAAUAAAAGAGAGGAUAUUCAAAAAGGGACAUGAGGAUCACCCAUGUAAAAGAAAAUAAAAUGGGAGAAGGCUCAAAAUAAAG [80%, More Helter Skelter 2]	85.5 nM	61.7 nM
AGAAAUAAACCUCAGGAUAUGGGUAAGAAAACAUGAGGAUCACCCAUGUAAAAGAAAAUAAAAAACCAGAAGGGAGAAAAUAAAG [Reversing G segment in JL's winner (80%) Variant 2]	31.3 nM	41.3 nM
AGAAAUAAAUCUCAGGAUAUGGGUAAAUAAACAUGAGGAUCACCCAUGUAAAAGAAAAUAAAAAACCAGAAGGGAGAAAAUAAGA [Designing denovo 2]	16.2 nM	39.2 nM
AGAAGACAUGAGGAUCACCCAUGUGGGAAUAUGGGAGGAUAUACAAAGACGAGAGUCAGAGUAGAAGGCCUAGGAC [salish99-ss1-94]	30.5 nM	81 nM
AGAAUAAAAAGACAGGAUAUCCAAAAGAAAACAUGAGGAUCACCCAUGUAAAGAAAAGAAAAAUGGGAGAAGGGUCAAAAUAAGA [Mat - Same State 2 - JL mod - D59]	20.4 nM	56.3 nM
AGACAUAACAGAGAGGAUAUCCAAAAGAAAACAUGAGGAUCACCCAUGUGAAAGAAAAUAAAAUGGGAGAAGGCUCACAUACAGA [Topaz 37]	20 nM	39 nM
AGCAUAGACAGAGAGGAUAUCCACGAGACAACAUGAGGAUCACCCAUGUGAAAGAGAAUACGAUGGGAGAAGGCUCGCGAUACGA [Topaz 49]	13.4 nM	19.7 nM
AGCAUAGACAGAGAGGAUAUCCACGAGACAACAUGAGGAUCACCCAUGUGAUAGAGAAUACGAUGGGAGAAGGCUCGCGGUACGA [Topaz 50]	13.9 nM	61.3 nM
AGGAAACAUGAGGAUCACCCAUGUAAAAAAUAUGGAGGAUAUGGAAACACGAAAGUGAAACCAGAAGGCUAAAAAA [77%, Mat - Mod of Eli, 24]	17 nM	26.9 nM
AGGAAACAUGAGGAUCACCCAUGUAAAAAUAUGGGAGGAUAUACAAAGACGAAAGUAAGAGUAGAAGGCCUAAAAG [Garnet 16]	31.3 nM	150 nM
AGGAAACAUGAGGAUCACCCAUGUAAAAAUAUGGGAGGAUAUAGAAAGACGAAAGUCAAACUAGAAGGCCUAAAAG [Garnet 5]	16.1 nM	83.3 nM
AGGAAACAUGAGGAUCACCCAUGUAAAAAUAUGGGAGGAUAUGGAAACACGAAAGUGAAACCAGAAGGCCCGAAAA [77%, Mat - Mod of Eli, 18]	17.1 nM	23.9 nM
AGGAAACAUGAGGAUCACCCAUGUAAAAGGUGGGUAGGAUAUGCGAAAAGAAAAAGAAAAGCAGAAGGGCCAAGAA [something completely different]	41.9 nM	133 nM
AGGAAACAUGAGGAUCACCCAUGUAGAAAAAUGGGAGGAUAUACAAAGACGAAAGUCAAAGUAGAAGGCCUAAAAG [76%, Meechl, 6]	14.5 nM	45.8 nM
AGGAAACAUGAGGAUCACCCAUGUAGAAAUAUGGGAGGAUAUACAAAGACGAAAGUCAAAGUAGAAGGCCUAAAAG [76%, Meechl 1]	22.8 nM	63 nM
AGGAAACAUGAGGAUCACCCAUGUCUAAAUAUGGGAGGAUAUGCACAAAAGGAAAUAACUGCAGAAGGCCUAAAAA [62%, Redo, 4]	17.3 nM	103 nM
AGGAGACAUGAGGAUCACCCAUGUGAGAAGAGGCGAGGAUAUCGAAAGAAAGAAGAGAAACGAGAAGGCGCGAGAA [salish99-SS1-017]	15 nM	30.3 nM
AGGAGACAUGAGGAUCACCCAUGUGAGAAGAGGCGAGGAUAUCGAAAGAAAGAAGAGAAACGAGAAGGCGCGAGGC [salish99-SS1-031]	27 nM	23.5 nM
AGGAGACAUGAGGAUCACCCAUGUGCACGUGGACGAGGAUAUGCUAGUAGAAGAUAGAAUGCAGAAGGCGUAAGAA [Mod of JR]	48.4 nM	29.9 nM
